According to publication PMC11950179 (Nature Communications, 2025):

T1: human muscle phosphorylase kinase α subunit (PHKA1), dephosphorylated (human, UniProt P46020 1-1223)
T1 sequence (looked up): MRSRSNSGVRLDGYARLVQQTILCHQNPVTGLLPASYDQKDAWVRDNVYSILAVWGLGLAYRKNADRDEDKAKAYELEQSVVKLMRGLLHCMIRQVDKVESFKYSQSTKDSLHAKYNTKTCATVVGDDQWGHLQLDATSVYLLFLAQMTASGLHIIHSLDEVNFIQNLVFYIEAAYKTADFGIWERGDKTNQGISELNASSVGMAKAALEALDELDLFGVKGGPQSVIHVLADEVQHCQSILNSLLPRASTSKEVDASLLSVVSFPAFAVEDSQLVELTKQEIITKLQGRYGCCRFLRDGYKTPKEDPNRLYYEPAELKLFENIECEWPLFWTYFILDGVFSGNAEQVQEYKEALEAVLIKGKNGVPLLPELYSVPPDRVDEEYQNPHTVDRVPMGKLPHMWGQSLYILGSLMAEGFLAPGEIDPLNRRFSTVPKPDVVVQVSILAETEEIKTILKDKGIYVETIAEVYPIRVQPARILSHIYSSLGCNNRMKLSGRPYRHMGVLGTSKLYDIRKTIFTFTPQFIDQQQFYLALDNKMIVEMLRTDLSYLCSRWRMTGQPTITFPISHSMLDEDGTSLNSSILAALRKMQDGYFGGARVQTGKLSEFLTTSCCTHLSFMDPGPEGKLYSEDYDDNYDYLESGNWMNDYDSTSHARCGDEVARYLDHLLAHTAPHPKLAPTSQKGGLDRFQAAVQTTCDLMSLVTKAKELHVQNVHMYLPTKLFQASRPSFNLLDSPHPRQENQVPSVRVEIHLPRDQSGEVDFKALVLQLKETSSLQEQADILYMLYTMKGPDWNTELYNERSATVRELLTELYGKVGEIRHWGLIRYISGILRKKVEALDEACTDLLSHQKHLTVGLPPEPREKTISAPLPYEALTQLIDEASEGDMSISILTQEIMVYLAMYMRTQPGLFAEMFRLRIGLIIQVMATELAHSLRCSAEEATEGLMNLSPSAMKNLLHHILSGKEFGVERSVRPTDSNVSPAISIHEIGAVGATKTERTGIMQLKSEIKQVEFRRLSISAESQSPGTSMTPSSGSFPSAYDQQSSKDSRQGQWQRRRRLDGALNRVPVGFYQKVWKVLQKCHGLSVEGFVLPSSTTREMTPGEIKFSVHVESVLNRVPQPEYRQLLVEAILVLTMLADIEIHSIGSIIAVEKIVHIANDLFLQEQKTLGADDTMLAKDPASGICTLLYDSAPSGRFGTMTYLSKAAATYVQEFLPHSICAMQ

B1: human muscle glycogen phosphorylase (PYGM) (enzyme, UniProt P11217 1-842, looked up)
chain: MSRPLSDQEKRKQISVRGLAGVENVTELKKNFNRHLHFTLVKDRNVATPRDYYFALAHTVRDHLVGRWIRTQQHYYEKDPKRIYYLSLEFYMGRTLQNTMVNLALENACDEATYQLGLDMEELEEIEEDAGLGNGGLGRLAACFLDSMATLGLAAYGYGIRYEFGIFNQKISGGWQMEEADDWLRYGNPWEKARPEFTLPVHFYGHVEHTSQGAKWVDTQVVLAMPYDTPVPGYRNNVVNTMRLWSAKAPNDFNLKDFNVGGYIQAVLDRNLAENISRVLYPNDNFFEGKELRLKQEYFVVAATLQDIIRRFKSSKFGCRDPVRTNFDAFPDKVAIQLNDTHPSLAIPELMRILVDLERMDWDKAWDVTVRTCAYTNHTVLPEALERWPVHLLETLLPRHLQIIYEINQRFLNRVAAAFPGDVDRLRRMSLVEEGAVKRINMAHLCIAGSHAVNGVARIHSEILKKTIFKDFYELEPHKFQNKTNGITPRRWLVLCNPGLAEVIAERIGEDFISDLDQLRKLLSFVDDEAFIRDVAKVKQENKLKFAAYLEREYKVHINPNSLFDIQVKRIHEYKRQLLNCLHVITLYNRIKREPNKFFVPRTVMIGGKAAPGYHMAKMIIRLVTAIGDVVNHDPAVGDRLRVIFLENYRVSLAEKVIPAADLSEQISTAGTEASGTGNMKFMLNGALTIGTMDGANVEMAEEAGEENFFIFGMRVEDVDKLDQRGYNAQEYYDRIPELRQVIEQLSSGFFSPKQPDLFKDIVNMLMHHDRFKVFADYEDYIKCQEKVSALYKNPREWTRMVIRNIATSGKFSSDRTIAQYAREIWGVEPSRQRLPAPDEAI
B2: human muscle phosphorylase kinase γ subunit (PHKG1) (enzyme)
chain: not shown
B3: human phosphorylase kinase β subunit (PHKB), dephosphorylated (natural protein, UniProt Q93100 1-1093, looked up)
chain: MAGAAGLTAEVSWKVLERRARTKRSGSVYEPLKSINLPRPDNETLWDKLDHYYRIVKSTLLLYQSPTTGLFPTKTCGGDQKAKIQDSLYCAAGAWALALAYRRIDDDKGRTHELEHSAIKCMRGILYCYMRQADKVQQFKQDPRPTTCLHSVFNVHTGDELLSYEEYGHLQINAVSLYLLYLVEMISSGLQIIYNTDEVSFIQNLVFCVERVYRVPDFGVWERGSKYNNGSTELHSSSVGLAKAALEAINGFNLFGNQGCSWSVIFVDLDAHNRNRQTLCSLLPRESRSHNTDAALLPCISYPAFALDDEVLFSQTLDKVVRKLKGKYGFKRFLRDGYRTSLEDPNRCYYKPAEIKLFDGIECEFPIFFLYMMIDGVFRGNPKQVQEYQDLLTPVLHHTTEGYPVVPKYYYVPADFVEYEKNNPGSQKRFPSNCGRDGKLFLWGQALYIIAKLLADELISPKDIDPVQRYVPLKDQRNVSMRFSNQGPLENDLVVHVALIAESQRLQVFLNTYGIQTQTPQQVEPIQIWPQQELVKAYLQLGINEKLGLSGRPDRPIGCLGTSKIYRILGKTVVCYPIIFDLSDFYMSQDVFLLIDDIKNALQFIKQYWKMHGRPLFLVLIREDNIRGSRFNPILDMLAALKKGIIGGVKVHVDRLQTLISGAVVEQLDFLRISDTEELPEFKSFEELEPPKHSKVKRQSSTPSAPELGQQPDVNISEWKDKPTHEILQKLNDCSCLASQAILLGILLKREGPNFITKEGTVSDHIERVYRRAGSQKLWLAVRYGAAFTQKFSSSIAPHITTFLVHGKQVTLGAFGHEEEVISNPLSPRVIQNIIYYKCNTHDEREAVIQQELVIHIGWIISNNPELFSGMLKIRIGWIIHAMEYELQIRGGDKPALDLYQLSPSEVKQLLLDILQPQQNGRCWLNRRQIDGSLNRTPTGFYDRVWQILERTPNGIIVAGKHLPQQPTLSDMTMYEMNFSLLVEDTLGNIDQPQYRQIVVELLMVVSIVLERNPELEFQDKVDLDRLVKEAFNEFQKDQSRLKEIEKQDDMTSFYNTPPLGKRGTCSYLTKAVMNLLLEGEVKPNNDDPCLIS

Tests used:
[1] = target: T1, human muscle phosphorylase kinase α …; assay: cross-linking
[2] = target: B3; assay: cross-linking
[3] = target: human calmodulin, δ subunit of phosphorylase kinase (human, UniProt P0DP25 1-149); assay: cryo-EM structure
[4] = target: B1; assay: cross-linking
cryo-EM structure = target: the molecule itself; assay: cryo-EM structure

B1: binds [1]; binds [2].

B2: binds [3]; binds [4].

In the case of B3, the “stoichiometry N” value (cryo-EM structure) is reported as 4.
